Molecular target: Skeletal muscle actin (chicken) (UniProt P68139)

Mouse utrophin residues 1-H416 with C-terminal biotin and FLAG tags (from UniProt E9Q6R7 1-416) (domain or fragment)
KS of the utrophin-based loaded in vitro motility assay (utrophin concentration that arrests motion), with PfMyoA K764E on the surface, 30 °C: 3.04 nM | KS of the utrophin-based loaded in vitro motility assay (utrophin concentration that arrests motion), with PfMyoA S19A on the surface, 30 °C: 2.42 nM | KS of the utrophin-based loaded in vitro motility assay (utrophin concentration that arrests motion), with PfMyoA WT on the surface, 30 °C: 1.4 nM | KS of the utrophin-based loaded in vitro motility assay (utrophin concentration that arrests motion), with PfMyoA ∆N on the surface, 30 °C: 10.8 nM
